According to the supplement of paper PMC5998384:

How the values were obtained:
HeLa Kyoto [1] = assay: solubility change mitosis vs G1/S (difference of NP-40 vs SDS log2 ratios) (log2 ratio difference); higher = more soluble in mitosis
HeLa Kyoto [2] = assay: solubility in G1/S (NP-40 vs SDS abundance) (log2 ratio); higher = more soluble; conditions: cell cycle stage: G1/S
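Wherever solubility change mitosis vs G1/S (difference of NP-40 vs SDS log2 ratios) is given: synchronized HeLa Kyoto cells (double thymidine block for G1/S, nocodazole release for mitosis), protein amounts in NP-40 versus SDS lysates quantified by mass spectrometry, three biological replicates.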
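Wherever solubility in G1/S (NP-40 vs SDS abundance) is given: HeLa Kyoto cells arrested at G1/S by double thymidine block, proteins quantified by TMT10plex mass spectrometry in mild NP-40 versus SDS extracts, three biological replicates.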

Sequence	solubility change mitosis (log2) (HeLa Kyoto [1])	solubility in G1/S (log2) (HeLa Kyoto [2])
MKQLPAATVRLLSSSQIITSVVSVVKELIENSLDAGATSVDVKLENYGFDKIEVRDNGEGIKAVDAPVMAMKYYTSKINSHEDLENLTTYGFRGEALGSICCIAEVLITTRTAADNFSTQYVLDGSGHILSQKPSHLGQGTTVTALRLFKNLPVRKQFYSTAKKCKDEIKKIQDLLMSFGILKPDLRIVFVHNKAVIWQKSRVSDHKMALMSVLGTAVMNNMESFQYHSEESQIYLSGFLPKCDADHSFTSLSTPERSFIFINSRPVHQKDILKLIRHHYNLKCLKESTRLYPVFFLKIDVPTADVDVNLTPDKSQVLLQNKESVLIALENLMTTCYGPLPSTNSYENNKTDVSAADIVLSKTAETDVLFNKVESSGKNYSNVDTSVIPFQNDMHNDESGKNTDDCLNHQISIGDFGYGHCSSEISNIDKNTKNAFQDISMSNVSWENSQTEYSKTCFISSVKHTQSENGNKDHIDESGENEEEAGLENSSEISADEWSRGNILKNSVGENIEPVKILVPEKSLPCKVSNNNYPIPEQMNLNEDSCNKKSNVIDNKSGKVTAYDLLSNRVIKKPMSASALFVQDHRPQFLIENPKTSLEDATLQIEELWKTLSEEEKLKYEEKATKDLERYNSQMKRAIEQESQMSLKDGRKKIKPTSAWNLAQKHKLKTSLSNQPKLDELLQSQIEKRRSQNIKMVQIPFSMKNLKINFKKQNKVDLEEKDEPCLIHNLRFPDAWLMTSKTEVMLLNPYRVEEALLFKRLLENHKLPAEPLEKPIMLTESLFNGSHYLDVLYKMTADDQRYSGSTYLSDPRLTANGFKIKLIPGVSITENYLEIEGMANCLPFYGVADLKEILNAILNRNAKEVYECRPRKVISYLEGEAVRLSRQLPMYLSKEDIQDIIYRMKHQFGNEIKECVHGRPFFHHLTYLPETT [PMS1]	-0.108	-0.0908
MLARALLLCAVLALSHTANPCCSHPCQNRGVCMSVGFDQYKCDCTRTGFYGENCSTPEFLTRIKLFLKPTPNTVHYILTHFKGFWNVVNNIPFLRNAIMSYVLTSRSHLIDSPPTYNADYGYKSWEAFSNLSYYTRALPPVPDDCPTPLGVKGKKQLPDSNEIVEKLLLRRKFIPDPQGSNMMFAFFAQHFTHQFFKTDHKRGPAFTNGLGHGVDLNHIYGETLARQRKLRLFKDGKMKYQIIDGEMYPPTVKDTQAEMIYPPQVPEHLRFAVGQEVFGLVPGLMMYATIWLREHNRVCDVLKQEHPEWGDEQLFQTSRLILIGETIKIVIEDYVQHLSGYHFKLKFDPELLFNKQFQYQNRIAAEFNTLYHWHPLLPDTFQIHDQKYNYQQFIYNNSILLEHGITQFVESFTRQIAGRVAGGRNVPPAVQKVSQASIDQSRQMKYQSFNEYRKRFMLKPYESFEELTGEKEMSAELEALYGDIDAVELYPALLVEKPRPDAIFGETMVEVGAPFSLKGLMGNVICSPAYWKPSTFGGEVGFQIINTASIQSLICNNVKGCPFTSFSVPDPELIKTVTINASSSRSGLDDINPTVLLKERSTEL [PTGS2]	-0.117	0.069
MLGQQQQQLYSSAALLTGERSRLLTCYVQDYLECVESLPHDMQRNVSVLRELDNKYQETLKEIDDVYEKYKKEDDLNQKKRLQQLLQRALINSQELGDEKIQIVTQMLELVENRARQMELHSQCFQDPAESERASDKAKMDSSQPERSSRRPRRQRTSESRDLCHMANGIEDCDDQPPKEKKSKSAKKKKRSKAKQEREASPVEFAIDPNEPTYCLCNQVSYGEMIGCDNEQCPIEWFHFSCVSLTYKPKGKWYCPKCRGDNEKTMDKSTEKTKKDRRSR [ING2]	0.625	-0.404
MLQSLAGSSCVRLVERHRSAWCFGFLVLGYLLYLVFGAVVFSSVELPYEDLLRQELRKLKRRFLEEHECLSEQQLEQFLGRVLEASNYGVSVLSNASGNWNWDFTSALFFASTVLSTTGYGHTVPLSDGGKAFCIIYSVIGIPFTLLFLTAVVQRITVHVTRRPVLYFHIRWGFSKQVVAIVHAVLLGFVTVSCFFFIPAAVFSVLEDDWNFLESFYFCFISLSTIGLGDYVPGEGYNQKFRELYKIGITCYLLLGLIAMLVVLETFCELHELKKFRKMFYVKKDKDEDQVHIIEHDQLSFSSITDQAAGMKEDQKQNEPFVATQSSACVDGPANH [KCNK1]	-0.0475	-0.169
MLRLLASGCARGPGPGVGARPAAGLFHPGRRQSRQASDAPRNQPPSPEFVARPVGVCSMMRLPVQTSPEGLDAAFIGVPLDTGTSNRPGARFGPRRIREESVMLGTVNPSTGALPFQSLMVADLGDVNVNLYNLQDSCRRIQEAYEKIVAAGCIPLTLGGDHTITYPILQAMAKKHGPVGLLHVDAHTDTTDKALGEKLYHGAPFRRCVDEGLLDCKRVVQIGIRGSSTTLDPYRYNRSQGFRVVLAEDCWMKSLVPLMGEVRQQMGGKPIYISFDIDALDPAYAPGTGTPEIAGLTPSQALEIIRGCQGLNVMGCDLVEVSPPYDLSGNTALLAANLLFEMLCALPKVTTV [AGMAT]	0.0673	0.243
MLRLQMTDGHISCTAVEFSYMSKISLNTPPGTKVKLSGIVDIKNGFLLLNDSNTTVLGGEVEHLIEKWELQRSLSKHNRSNIGTEGGPPPFVPFGQKCVSHVQVDSRELDRRKTLQVTMPVKPTNDNDEFEKQRTAAIAEVAKSKETKTFGGGGGGARSNLNMNAAGNRNREVLQKEKSTKSEGKHEGVYRELVDEKALKHITEMGFSKEASRQALMDNGNNLEAALNVLLTSNKQKPVMGPPLRGRGKGRGRIRSEDEEDLGNARPSAPSTLFDFLESKMGTLNVEEPKSQPQQLHQGQYRSSNTEQNGVKDNNHLRHPPRNDTRQPRNEKPPRFQRDSQNSKSVLEGSGLPRNRGSERPSTSSVSEVWAEDRIKCDRPYSRYDRTKDTSYPLGSQHSDGAFKKRDNSMQSRSGKGPSFAEAKENPLPQGSVDYNNQKRGKRESQTSIPDYFYDRKSQTINNEAFSGIKIEKHFNVNTDYQNPVRSNSFIGVPNGEVEMPLKGRRIGPIKPAGPVTAVPCDDKIFYNSGPKRRSGPIKPEKILESSIPMEYAKMWKPGDECFALYWEDNKFYRAEVEALHSSGMTAVVKFIDYGNYEEVLLSNIKPIQTEAWEEEGTYDQTLEFRRGGDGQPRRSTRPTQQFYQPPRARN [TDRD3]	0.149	-0.658
MLRRPAPALAPAARLLLAGLLCGGGVWAARVNKHKPWLEPTYHGIVTENDNTVLLDPPLIALDKDAPLRFAESFEVTVTKEGEICGFKIHGQNVPFDAVVVDKSTGEGVIRSKEKLDCELQKDYSFTIQAYDCGKGPDGTNVKKSHKATVHIQVNDVNEYAPVFKEKSYKATVIEGKQYDSILRVEAVDADCSPQFSQICSYEIITPDVPFTVDKDGYIKNTEKLNYGKEHQYKLTVTAYDCGKKRATEDVLVKISIKPTCTPGWQGWNNRIEYEPGTGALAVFPNIHLETCDEPVASVQATVELETSHIGKGCDRDTYSEKSLHRLCGAAAGTAELLPSPSGSLNWTMGLPTDNGHDSDQVFEFNGTQAVRIPDGVVSVSPKEPFTISVWMRHGPFGRKKETILCSSDKTDMNRHHYSLYVHGCRLIFLFRQDPSEEKKYRPAEFHWKLNQVCDEEWHHYVLNVEFPSVTLYVDGTSHEPFSVTEDYPLHPSKIETQLVVGACWQEFSGVENDNETEPVTVASAGGDLHMTQFFRGNLAGLTLRSGKLADKKVIDCLYTCKEGLDLQVLEDSGRGVQIQAHPSQLVLTLEGEDLGELDKAMQHISYLNSRQFPTPGIRRLKITSTIKCFNEATCISVPPVDGYVMVLQPEEPKISLSGVHHFARAASEFESSEGVFLFPELRIISTITREVEPEGDGAEDPTVQESLVSEEIVHDLDTCEVTVEGEELNHEQESLEVDMARLQQKGIEVSSSELGMTFTGVDTMASYEEVLHLLRYRNWHARSLLDRKFKLICSELNGRYISNEFKVEVNVIHTANPMEHANHMAAQPQFVHPEHRSFVDLSGHNLANPHPFAVVPSTATVVIVVCVSFLVFMIILGVFRIRAAHRRTMRDQDTGKENEMDWDDSALTITVNPMETYEDQHSSEEEEEEEEEEESEDGEEEDDITSAESESSEEEEGEQGDPQNATRQQQLEWDDSTLSY [CLSTN1]	-0.189	-0.0306
